The source of these data is the RNAGym collection of RNA variant scans (doi:10.1093/molbev/msab373).

B1: Azoarcus group I ribozyme (parent)
chain: GUGCCUUGCGCCGGGAAACCACGCAAGGGAUGGUGUCAAAUUCGGCGAAACCUAAGCGCCCGCCCGGGCGUAUGGCAACGCCGAGCCAAGCUUCGGCGCCUGCGCCGAUGAAGGUGUAGAGACUAGACGGCACCCACCUAAGGCAAACGCUAUGGUGAAGGCAUAGUCCAGGGAGUGGCGAAAGUCACACAAACCGG

In this data set the parent is B1. Briefly: reverse-splicing fitness (ratio to wild type); higher = more active; in vitro selection; Mg2+ level not given. In outline:
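An in vitro group I ribozyme library with randomized positions was T7-transcribed and gel-purified. In triplicate, 10 pmol RNA in EPPS pH 7.5 was reacted with 50 pmoles of a 30-nt RNA substrate for 1 h at 37 °C across several added MgCl2 levels (1–48 mM), then stopped with EDTA. Products were reverse transcribed from a substrate-complementary primer, PCR-amplified and sequenced (HiSeq 4000). Fitness is a variant's read proportion after selection over that before, normalised to wild type.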
For C82A A111G A120C A145C C169U, the reverse-splicing fitness is 0.0116.

As to C82A A111C A145G C150U, the reverse-splicing fitness was determined as 0.174.

Take C82A A111G A120C A145C C150A C169U U176A: the reverse-splicing fitness was found to be 0.0138.

In the case of C82A A111G A120C A145C C150A C169U U176G, the reverse-splicing fitness is 0.00607.

With C82A A111G A120C A145C C150A C169U U176C, the reverse-splicing fitness worked out at 0.011.

Turning to C82A A111C A145U C169A U176C, the reverse-splicing fitness turned out to be 0.0156.

In the case of C82A A111C A145U C169A U176G, the reverse-splicing fitness stood at 0.0095.

Turning to C82A A111C A145U C169A U176A, the reverse-splicing fitness was 0.0138.

On to C82A A111G A120C A145C C150U C169U U176G, for which the reverse-splicing fitness was 0.00597.

On to C82A A111G A120C A145C C150U C169U U176A, for which the reverse-splicing fitness worked out at 0.0132.

Regarding C82A A111G A120C A145C C150U C169U U176C, the reverse-splicing fitness amounted to 0.0102.

As to C82A A111G A120C A145U C150U C169G U176A, the reverse-splicing fitness worked out at 0.0145.

On to C82A A111G A120C A145U C150U C169G U176G, for which the reverse-splicing fitness was 0.00539.

For the variant C82A A111G A120C A145U C150U C169G U176C, the reverse-splicing fitness amounted to 0.0191.

With C82A A111G A120C A145G C150G C169G U176A, the reverse-splicing fitness is 0.0127.

On to C82A A111G A120C A145G C150G C169G U176C, for which the reverse-splicing fitness was determined as 0.0115.

In the case of C82A A111G A120C A145G C150G C169G U176G, the reverse-splicing fitness is 0.00644.

For C82A A111G A120C A145G C169U U176A, the reverse-splicing fitness amounted to 0.0149.

With C82A A111G A120C A145G C169U U176G, the reverse-splicing fitness was found to be 0.00528.

In the case of C82A A111G A120C A145G C169U U176C, the reverse-splicing fitness worked out at 0.0146.

Consider C82A A111G A120C A145G C169A, for which the reverse-splicing fitness turned out to be 0.0112.

In the case of C82A A111G A120C A145G C169U, the reverse-splicing fitness turned out to be 0.013.

Take C82A A111G A120C A145G C169G: the reverse-splicing fitness is 0.00928.

Regarding C82A A111C A145U C150A C169U, the reverse-splicing fitness is 0.0123.

For C82A A111C A145U C150A C169A, the reverse-splicing fitness is 0.00982.

C82A A111C A145U C150A C169G: the reverse-splicing fitness amounted to 0.00915.

Take C82A A111C C150G C169U: the reverse-splicing fitness was 0.00907.

As for C82A A111C C150G C169A, the reverse-splicing fitness came out at 0.00766.

For the variant C82A A111C C150G C169G, the reverse-splicing fitness is 0.00723.

Regarding C82A A111C A145G C169G U176C, the reverse-splicing fitness turned out to be 0.0335.

Consider C82A A111C A145G C169G U176A, for which the reverse-splicing fitness was determined as 0.0221.

Turning to C82A A111C A145G C169G U176G, the reverse-splicing fitness worked out at 0.00836.

C82A A111C A145G C169U U176G: the reverse-splicing fitness is 0.0073.

For the variant C82A A111C A145G C169U U176A, the reverse-splicing fitness stood at 0.0177.

C82A A111C A145G C169U U176C: the reverse-splicing fitness amounted to 0.0149.

Regarding C82A A111C C150A C169A, the reverse-splicing fitness came out at 0.00979.

C82A A111C C150A C169G: the reverse-splicing fitness turned out to be 0.00835.

As to C82A A111C C150A C169U, the reverse-splicing fitness worked out at 0.0131.

With C82A A111G A120C A145C C150G U176A, the reverse-splicing fitness was determined as 0.00522.

As for C82A A111G A120C A145C C150G U176G, the reverse-splicing fitness was found to be 0.00265.

For C82A A111G A120C A145C C150G U176C, the reverse-splicing fitness came out at 0.00712.

In the case of C82A A111G A120C A145G C150G C169A U176C, the reverse-splicing fitness is 0.0137.

For C82A A111G A120C A145G C150G C169A U176A, the reverse-splicing fitness came out at 0.0145.

As to C82A A111G A120C A145G C150G C169A U176G, the reverse-splicing fitness was determined as 0.00827.

On to C82A A111C C150G C169G U176G, for which the reverse-splicing fitness was 0.00585.

As to C82A A111C C150G C169G U176A, the reverse-splicing fitness came out at 0.00718.

Consider C82A A111C C150G C169G U176C, for which the reverse-splicing fitness is 0.00508.

For the variant C82A A111C A145G C169G, the reverse-splicing fitness worked out at 0.00878.

As for C82A A111C A145G C169A, the reverse-splicing fitness is 0.0103.

With C82A A111C A145G C169U, the reverse-splicing fitness amounted to 0.0142.

For C82A A111G A120C A145C U176G, the reverse-splicing fitness was determined as 0.00728.

For C82A A111G A120C A145C U176A, the reverse-splicing fitness is 0.0165.

Consider C82A A111G A120C A145C U176C, for which the reverse-splicing fitness is 0.024.

With C82A A111C A145U C150U C169A, the reverse-splicing fitness is 0.00867.

Take C82A A111C A145U C150U C169G: the reverse-splicing fitness turned out to be 0.00899.

As to C82A A111C A145U C150U C169U, the reverse-splicing fitness came out at 0.0128.

Turning to C82A A111G A120C A145C C150G C169U U176A, the reverse-splicing fitness turned out to be 0.00566.

C82A A111G A120C A145C C150G C169U U176G: the reverse-splicing fitness is 0.00527.

Take C82A A111G A120C A145C C150G C169U U176C: the reverse-splicing fitness is 0.00986.

Regarding C82A A111G A120C, the reverse-splicing fitness stood at 0.0449.

For the variant C82A A111C U176C, the reverse-splicing fitness worked out at 0.102.

With C82A A111C U176G, the reverse-splicing fitness worked out at 0.0172.

With C82A A111C U176A, the reverse-splicing fitness amounted to 0.0824.

Take C82A A111G A120C A145U C150A U176G: the reverse-splicing fitness amounted to 0.00739.

C82A A111G A120C A145U C150A U176A: the reverse-splicing fitness is 0.012.

As for C82A A111G A120C A145U C150A U176C, the reverse-splicing fitness is 0.0198.

As for C82A A111G A120C A145C C150U C169G U176C, the reverse-splicing fitness is 0.0213.

Turning to C82A A111G A120C A145C C150U C169G U176G, the reverse-splicing fitness amounted to 0.00681.

Consider C82A A111G A120C A145C C150U C169G U176A, for which the reverse-splicing fitness was found to be 0.025.

As to C82A A111C C150U C169U U176G, the reverse-splicing fitness came out at 0.00804.

As to C82A A111C C150U C169U U176A, the reverse-splicing fitness was determined as 0.0165.

Turning to C82A A111C C150U C169U U176C, the reverse-splicing fitness stood at 0.0147.

For C82A A111C C150G U176G, the reverse-splicing fitness was found to be 0.00364.

Take C82A A111C C150G U176A: the reverse-splicing fitness was found to be 0.0084.

Turning to C82A A111C C150G U176C, the reverse-splicing fitness came out at 0.0124.

As to C82A A111C A145U C150U C169G U176G, the reverse-splicing fitness came to 0.00855.

In the case of C82A A111C A145U C150U C169G U176C, the reverse-splicing fitness came to 0.0179.

For C82A A111C A145U C150U C169G U176A, the reverse-splicing fitness is 0.0143.

Take C82A A111G A120C A145U C150U C169A U176G: the reverse-splicing fitness was determined as 0.00591.

C82A A111G A120C A145U C150U C169A U176A: the reverse-splicing fitness is 0.0157.

Consider C82A A111G A120C A145U C150U C169A U176C, for which the reverse-splicing fitness is 0.0127.

Turning to C82A A111C C169U, the reverse-splicing fitness was 0.0139.

Turning to C82A A111C C169A, the reverse-splicing fitness is 0.00822.

For C82A A111C C169G, the reverse-splicing fitness turned out to be 0.00911.
